The source of these data is patent publication US20210196796A1 (SYNTHEKINE, published 2021).

Where a chain is given by its changes, count along the chain named.

To fix the notation:
B1: ΔA1, SQVLKA (ligand)
chain: PTSSSTKKTQLQLSQLLVLLKAILNGINNYKNPKLTRMLTFKFYMPKKATELKHLQCLEEELKPLEEVLNLAQSKNFHLRPRDLISNINVIVLELKGSETTFMCEYADETATIVEFLNRWITFCQSIISTLT
B2: ΔP2, SQVLKA (ligand)
chain: B1 chain with P1A
B3: ΔT7, SQVLKA (ligand)
chain: B1 chain with P1A, T2P, S3T, T6S
B4: SQVLEA (ligand)
chain: APTSSSTKKTQLQLSQLLVLLEAILNGINNYKNPKLTRMLTFKFYMPKKATELKHLQCLEEELKPLEEVLNLAQSKNFHLRPRDLISNINVIVLELKGSETTFMCEYADETATIVEFLNRWITFCQSIISTLT
B5: SQVLLA (ligand)
chain: B4 chain with E22L
B6: SQVLGA (ligand)
chain: B4 chain with E22G
B7: SQVLWA (ligand)
chain: B4 chain with E22W
B8: SQVLFA (Ref# 079) (ligand)
chain: B4 chain with E22F
B9: SQVLFA (Ref# 073) (ligand)
chain: B4 chain with E22F
B10: SQVLSA (ligand)
chain: B4 chain with E22S
B11: SQVLAA (ligand)
chain: B4 chain with E22A
B12: SQVLVA (ligand)
chain: B4 chain with E22V
B13: SQVLMA (ligand)
chain: B4 chain with E22M
Wherever Relative Proliferation Fold Change 3F8 1:10 is given: reference of the scale not given here.
Wherever Relative Proliferation Fold Change 3F8 1:2 is given: reference of the scale not given here.
Wherever Relative Proliferation Fold Change 3F8 1:50 is given: reference of the scale not given here.
Wherever Relative Proliferation Fold Change NKL 1:10 is given: reference of the scale not given here.
Wherever Relative Proliferation Fold Change NKL 1:2 is given: reference of the scale not given here.
Wherever Relative Proliferation Fold Change NKL 1:50 is given: reference of the scale not given here.

One experiment addresses T1, orthogonal hCD122 receptor (hoRb), hCD122 with H133D and Y134F (human, UniProt P14784 27-550).
T1 sequence: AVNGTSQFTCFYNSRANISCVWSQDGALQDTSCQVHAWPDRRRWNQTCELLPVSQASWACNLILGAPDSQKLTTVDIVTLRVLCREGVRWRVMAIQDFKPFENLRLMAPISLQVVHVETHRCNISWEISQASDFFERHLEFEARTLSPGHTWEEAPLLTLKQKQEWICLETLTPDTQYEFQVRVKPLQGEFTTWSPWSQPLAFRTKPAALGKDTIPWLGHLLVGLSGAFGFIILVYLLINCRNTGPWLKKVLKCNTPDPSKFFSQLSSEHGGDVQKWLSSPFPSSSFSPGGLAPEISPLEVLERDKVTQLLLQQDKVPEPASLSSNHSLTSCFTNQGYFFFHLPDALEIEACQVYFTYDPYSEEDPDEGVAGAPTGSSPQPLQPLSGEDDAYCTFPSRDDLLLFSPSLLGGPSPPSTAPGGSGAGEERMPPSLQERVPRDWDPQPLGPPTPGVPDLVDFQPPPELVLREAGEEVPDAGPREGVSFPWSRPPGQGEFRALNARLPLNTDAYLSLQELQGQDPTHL
The experiment is described as follows: cell-based or functional assay.
In the case of B1, the “NKL Ortho Proliferation Signal 1:2” value was 33400, the “NKL Ortho Proliferation Signal 1:10” value came to 27700, the “NKL Ortho Proliferation Signal 1:50” value worked out at 13800 and the “Relative Proliferation Fold Change NKL 1:2” value was determined as 2.96 fold. Moreover, the “Relative Proliferation Fold Change NKL 1:10” value was 1.81 fold and the “Relative Proliferation Fold Change NKL 1:50” value is 0.96 fold.

With B2, the “NKL Ortho Proliferation Signal 1:2” value came to 64000, the “NKL Ortho Proliferation Signal 1:10” value amounted to 61900, the “NKL Ortho Proliferation Signal 1:50” value was 27800 and the “Relative Proliferation Fold Change NKL 1:2” value came out at 4.41 fold. For the same molecule, the “Relative Proliferation Fold Change NKL 1:10” value stood at 3.8 fold and the “Relative Proliferation Fold Change NKL 1:50” value worked out at 1.77 fold.

For B3, the “NKL Ortho Proliferation Signal 1:2” value worked out at 55400, the “NKL Ortho Proliferation Signal 1:10” value turned out to be 51900, the “NKL Ortho Proliferation Signal 1:50” value was found to be 25300 and the “Relative Proliferation Fold Change NKL 1:2” value is 3.65 fold. Moreover, the “Relative Proliferation Fold Change NKL 1:10” value turned out to be 3.32 fold and the “Relative Proliferation Fold Change NKL 1:50” value was determined as 1.76 fold.

As to B4, the “NKL Ortho Proliferation Signal 1:2” value amounted to 21100, the “NKL Ortho Proliferation Signal 1:10” value was 18200, the “NKL Ortho Proliferation Signal 1:50” value stood at 9480 and the “Relative Proliferation Fold Change NKL 1:2” value turned out to be 1.78 fold. Besides, the “Relative Proliferation Fold Change NKL 1:10” value stood at 1.19 fold and the “Relative Proliferation Fold Change NKL 1:50” value was determined as 0.67 fold.

For B5, the “NKL Ortho Proliferation Signal 1:2” value is 16400, the “NKL Ortho Proliferation Signal 1:10” value is 16100, the “NKL Ortho Proliferation Signal 1:50” value came out at 8570 and the “Relative Proliferation Fold Change NKL 1:2” value worked out at 1.5 fold. For the same molecule, the “Relative Proliferation Fold Change NKL 1:10” value is 1.06 fold and the “Relative Proliferation Fold Change NKL 1:50” value amounted to 0.59 fold.

B6: the “NKL Ortho Proliferation Signal 1:2” value was 13500, the “NKL Ortho Proliferation Signal 1:10” value turned out to be 11700, the “NKL Ortho Proliferation Signal 1:50” value stood at 8730 and the “Relative Proliferation Fold Change NKL 1:2” value was found to be 1.1 fold. Moreover, the “Relative Proliferation Fold Change NKL 1:10” value was found to be 0.83 fold and the “Relative Proliferation Fold Change NKL 1:50” value is 0.6 fold.

For B7, the “NKL Ortho Proliferation Signal 1:2” value came out at 14000, the “NKL Ortho Proliferation Signal 1:10” value stood at 11100, the “NKL Ortho Proliferation Signal 1:50” value turned out to be 8870 and the “Relative Proliferation Fold Change NKL 1:2” value turned out to be 1.14 fold. Further, the “Relative Proliferation Fold Change NKL 1:10” value came out at 0.66 fold and the “Relative Proliferation Fold Change NKL 1:50” value is 0.54 fold.

B8: the “Relative Proliferation Fold Change NKL 1:2” value worked out at 1.23 fold.

In the case of B9, the “Relative Proliferation Fold Change NKL 1:2” value came out at 1.23 fold.

Take B10: the “NKL Ortho Proliferation Signal 1:2” value stood at 16000, the “NKL Ortho Proliferation Signal 1:10” value was determined as 13000, the “NKL Ortho Proliferation Signal 1:50” value worked out at 7840 and the “Relative Proliferation Fold Change NKL 1:2” value stood at 2.1 fold. Further, the “Relative Proliferation Fold Change NKL 1:10” value amounted to 1.25 fold and the “Relative Proliferation Fold Change NKL 1:50” value amounted to 0.77 fold.

For the molecule B11, the “NKL Ortho Proliferation Signal 1:2” value stood at 14600, the “NKL Ortho Proliferation Signal 1:10” value came out at 11800, the “NKL Ortho Proliferation Signal 1:50” value came to 9400 and the “Relative Proliferation Fold Change NKL 1:2” value worked out at 1.05 fold. Further, the “Relative Proliferation Fold Change NKL 1:10” value is 0.72 fold and the “Relative Proliferation Fold Change NKL 1:50” value was 0.62 fold.

For B12, the “NKL Ortho Proliferation Signal 1:2” value stood at 10800, the “NKL Ortho Proliferation Signal 1:10” value stood at 8600, the “NKL Ortho Proliferation Signal 1:50” value is 6590 and the “Relative Proliferation Fold Change NKL 1:2” value worked out at 0.83 fold. Also, the “Relative Proliferation Fold Change NKL 1:10” value worked out at 0.62 fold and the “Relative Proliferation Fold Change NKL 1:50” value came to 0.51 fold.

Turning to B13, the “NKL Ortho Proliferation Signal 1:2” value was 20500, the “NKL Ortho Proliferation Signal 1:10” value is 18600, the “NKL Ortho Proliferation Signal 1:50” value was 11000 and the “Relative Proliferation Fold Change NKL 1:2” value is 1.4 fold. For the same molecule, the “Relative Proliferation Fold Change NKL 1:10” value turned out to be 1.07 fold and the “Relative Proliferation Fold Change NKL 1:50” value was found to be 0.65 fold.

The next experiment addresses T1, orthogonal hCD122 receptor (hoRb), …. Briefly: cell-based or functional assay. This is another data set of the same source.
Regarding B1, the “3F8 Ortho Proliferation Signal 1:2” value came out at 32400 cts/min, the “3F8 Ortho Proliferation Signal 1:10” value is 21900 cts/min, the “3F8 Ortho Proliferation Signal 1:50” value is 8150 cts/min and the “Relative Proliferation Fold Change 3F8 1:2” value was found to be 171 fold. Moreover, the “Relative Proliferation Fold Change 3F8 1:10” value was found to be 22.6 fold and the “Relative Proliferation Fold Change 3F8 1:50” value came to 11.7 fold.

For B2, the “3F8 Ortho Proliferation Signal 1:2” value stood at 40100 cts/min, the “3F8 Ortho Proliferation Signal 1:10” value amounted to 31000 cts/min, the “3F8 Ortho Proliferation Signal 1:50” value was 12400 cts/min and the “Relative Proliferation Fold Change 3F8 1:2” value came to 34.2 fold. The “Relative Proliferation Fold Change 3F8 1:10” value turned out to be 29.4 fold and the “Relative Proliferation Fold Change 3F8 1:50” value worked out at 10.5 fold.

B3: the “3F8 Ortho Proliferation Signal 1:2” value was 40800 cts/min, the “3F8 Ortho Proliferation Signal 1:10” value amounted to 29200 cts/min, the “3F8 Ortho Proliferation Signal 1:50” value amounted to 10700 cts/min and the “Relative Proliferation Fold Change 3F8 1:2” value was 49.1 fold. The “Relative Proliferation Fold Change 3F8 1:10” value amounted to 21.7 fold and the “Relative Proliferation Fold Change 3F8 1:50” value amounted to 15.3 fold.

In the case of B4, the “3F8 Ortho Proliferation Signal 1:2” value came out at 33400 cts/min, the “3F8 Ortho Proliferation Signal 1:10” value is 31600 cts/min, the “3F8 Ortho Proliferation Signal 1:50” value amounted to 12600 cts/min and the “Relative Proliferation Fold Change 3F8 1:2” value came out at 32.9 fold. Besides, the “Relative Proliferation Fold Change 3F8 1:10” value is 28.2 fold and the “Relative Proliferation Fold Change 3F8 1:50” value worked out at 13.1 fold.

B5: the “3F8 Ortho Proliferation Signal 1:2” value was determined as 19700 cts/min, the “3F8 Ortho Proliferation Signal 1:10” value came to 9730 cts/min, the “3F8 Ortho Proliferation Signal 1:50” value was determined as 3150 cts/min and the “Relative Proliferation Fold Change 3F8 1:2” value came to 59.8 fold. Also, the “Relative Proliferation Fold Change 3F8 1:10” value came to 13 fold and the “Relative Proliferation Fold Change 3F8 1:50” value was 4.68 fold.

As for B6, the “3F8 Ortho Proliferation Signal 1:2” value was found to be 18000 cts/min, the “3F8 Ortho Proliferation Signal 1:10” value is 9170 cts/min, the “3F8 Ortho Proliferation Signal 1:50” value was 2300 cts/min and the “Relative Proliferation Fold Change 3F8 1:2” value was found to be 74.5 fold. For the same molecule, the “Relative Proliferation Fold Change 3F8 1:10” value came out at 15.6 fold and the “Relative Proliferation Fold Change 3F8 1:50” value came to 5.06 fold.

With B7, the “3F8 Ortho Proliferation Signal 1:2” value was 7840 cts/min, the “3F8 Ortho Proliferation Signal 1:10” value is 4470 cts/min, the “3F8 Ortho Proliferation Signal 1:50” value came out at 714 cts/min and the “Relative Proliferation Fold Change 3F8 1:2” value came to 14.6 fold. For the same molecule, the “Relative Proliferation Fold Change 3F8 1:10” value came out at 3.35 fold and the “Relative Proliferation Fold Change 3F8 1:50” value came out at 0.92 fold.

Consider B10, for which the “3F8 Ortho Proliferation Signal 1:2” value amounted to 22000 cts/min, the “3F8 Ortho Proliferation Signal 1:10” value was 14500 cts/min, the “3F8 Ortho Proliferation Signal 1:50” value came out at 4060 cts/min and the “Relative Proliferation Fold Change 3F8 1:2” value is 117 fold. The “Relative Proliferation Fold Change 3F8 1:10” value stood at 23.9 fold and the “Relative Proliferation Fold Change 3F8 1:50” value is 6 fold.

For the molecule B11, the “3F8 Ortho Proliferation Signal 1:2” value was 15900 cts/min, the “3F8 Ortho Proliferation Signal 1:10” value worked out at 7290 cts/min, the “3F8 Ortho Proliferation Signal 1:50” value turned out to be 2940 cts/min and the “Relative Proliferation Fold Change 3F8 1:2” value turned out to be 69.2 fold. The “Relative Proliferation Fold Change 3F8 1:10” value came out at 10.1 fold and the “Relative Proliferation Fold Change 3F8 1:50” value turned out to be 4.29 fold.

For the molecule B12, the “3F8 Ortho Proliferation Signal 1:2” value stood at 8530 cts/min, the “3F8 Ortho Proliferation Signal 1:10” value was found to be 5590 cts/min, the “3F8 Ortho Proliferation Signal 1:50” value amounted to 1850 cts/min and the “Relative Proliferation Fold Change 3F8 1:2” value came out at 20.2 fold. Further, the “Relative Proliferation Fold Change 3F8 1:10” value came to 9.6 fold and the “Relative Proliferation Fold Change 3F8 1:50” value stood at 2.1 fold.

As to B13, the “3F8 Ortho Proliferation Signal 1:2” value worked out at 20800 cts/min, the “3F8 Ortho Proliferation Signal 1:10” value was determined as 11100 cts/min, the “3F8 Ortho Proliferation Signal 1:50” value came to 3800 cts/min and the “Relative Proliferation Fold Change 3F8 1:2” value came out at 63.3 fold. Besides, the “Relative Proliferation Fold Change 3F8 1:10” value was found to be 14.5 fold and the “Relative Proliferation Fold Change 3F8 1:50” value turned out to be 5.92 fold.
